Measured values: patent US20230406885A1, “CYCLIC PEPTIDES FOR TRAPPING INTERLEUKIN-1 BETA” (MERCK SHARP & DOHME LLC, priority 2022, published 2023)
*1 amine or outer side, *2 acyl side, *3 side chain or, on linkers, in order; H or OH if unused. [ ]: non-standard residue; d: D form. TyrEtNAc = L-tyrosine O-ethyl acetamide, (S)-3-(4-(2-acetamidoethoxy)phenyl)-2-aminopropanoic acid, CC(=O)NCCOc1ccc(C[C@H](N[*:1])C(=O)[*:2])cc1; dDabMe3 = [(R)-3-amino-3-carboxypropyl]-trimethylazanium, C[N+](C)(C)CC[C@@H](N[*:1])C(=O)[*:2]; Phe(4-(4-Ac-piperazinyl)) = CC(=O)N1CCN(c2ccc(C[C@H](N)C(=O)O)cc2)CC1; Pro(trans-4-NH2) = O=C([C@@H]1C[C@@H](N[*:3])CN1[*:1])[*:2]; Bip(4'-COOH) = N[C@@H](Cc1ccc(-c2ccc(C(=O)O)cc2)cc1)C(=O)O; 1Nal(3S-Me) = C[C@@H](c1cccc2ccccc12)[C@H](N)C(=O)O; Ala(indolin-1-yl) = N[C@@H](CN1CCc2ccccc21)C(=O)O; Trp(6-Cl) = N[C@@H](Cc1c[nH]c2cc(Cl)ccc12)C(=O)O; Phe(4-COOH) = N[C@@H](Cc1ccc(C(=O)O)cc1)C(=O)O; Trp(6-F) = N[C@@H](Cc1c[nH]c2cc(F)ccc12)C(=O)O; Trp(7-aza) = N[C@@H](Cc1c[nH]c2ncccc12)C(=O)O; h3Pal(5-CN) = N#Cc1cncc(CC[C@H](N)C(=O)O)c1; hTyr = N[C@@H](CCc1ccc(O)cc1)C(=O)O; hCha = N[C@@H](CCC1CCCCC1)C(=O)O; dDab = NCC[C@@H](N)C(=O)O; Orn = NCCC[C@H](N)C(=O)O; dNMeA = CN[C@H](C)C(=O)O; Dap = NC[C@H](N)C(=O)O

Target: Recombinant human IL-1β (BioLegend 579404) (human, UniProt P01584 117-269)
Assay: cell-based or functional assay

MRC5 IC50 [nM] | Binder
0.024 | cyclo([TyrEtNAc]W[Phe(4-COOH)]G[Pro(trans-4-NH2)][1Nal(3S-Me)]D[dNMeA]G[Bip(4'-COOH)][Trp(7-aza)]G[dDab][hTyr]) (SMILES CC(=O)NCCOc1ccc(C[C@@H]2NC(=O)[C@H](CCc3ccc(O)cc3)NC(=O)[C@@H](CCN)NC(=O)CNC(=O)[C@H](Cc3c[nH]c4ncccc34)NC(=O)[C@H](Cc3ccc(-c4ccc(C(=O)O)cc4)cc3)NC(=O)CNC(=O)[C@@H](C)N(C)C(=O)[C@H](CC(=O)O)NC(=O)[C@H]([C@@H](C)c3cccc4ccccc34)NC(=O)[C@@H]3C[C@@H](N)CN3C(=O)CNC(=O)[C@H](Cc3ccc(C(=O)O)cc3)NC(=O)[C@H](Cc3c[nH]c4ccccc34)NC2=O)cc1) [SEQ ID NO: 215 (Example No. 215)]
0.009 | cyclo([Phe(4-(4-Ac-piperazinyl))]W[Phe(4-COOH)]G[Pro(trans-4-NH2)][1Nal(3S-Me)]D[dNMeA]G[Bip(4'-COOH)][Orn]L[dA][hCha]) (SMILES CC(=O)N1CCN(c2ccc(C[C@@H]3NC(=O)[C@H](CCC4CCCCC4)NC(=O)[C@@H](C)NC(=O)[C@H](CC(C)C)NC(=O)[C@H](CCCN)NC(=O)[C@H](Cc4ccc(-c5ccc(C(=O)O)cc5)cc4)NC(=O)CNC(=O)[C@@H](C)N(C)C(=O)[C@H](CC(=O)O)NC(=O)[C@H]([C@@H](C)c4cccc5ccccc45)NC(=O)[C@@H]4C[C@@H](N)CN4C(=O)CNC(=O)[C@H](Cc4ccc(C(=O)O)cc4)NC(=O)[C@H](Cc4c[nH]c5ccccc45)NC3=O)cc2)CC1) [SEQ ID NO: 209 (Example No. 209)]
0.015 | cyclo([Phe(4-(4-Ac-piperazinyl))]W[Phe(4-COOH)]G[Pro(trans-4-NH2)][1Nal(3S-Me)]D[dNMeA]G[Bip(4'-COOH)][Dap]L[dA][hCha]) (SMILES CC(=O)N1CCN(c2ccc(C[C@@H]3NC(=O)[C@H](CCC4CCCCC4)NC(=O)[C@@H](C)NC(=O)[C@H](CC(C)C)NC(=O)[C@H](CN)NC(=O)[C@H](Cc4ccc(-c5ccc(C(=O)O)cc5)cc4)NC(=O)CNC(=O)[C@@H](C)N(C)C(=O)[C@H](CC(=O)O)NC(=O)[C@H]([C@@H](C)c4cccc5ccccc45)NC(=O)[C@@H]4C[C@@H](N)CN4C(=O)CNC(=O)[C@H](Cc4ccc(C(=O)O)cc4)NC(=O)[C@H](Cc4c[nH]c5ccccc45)NC3=O)cc2)CC1) [SEQ ID NO: 206 (Example No. 206)]
0.018 | cyclo([Phe(4-(4-Ac-piperazinyl))]W[Phe(4-COOH)]G[Pro(trans-4-NH2)][1Nal(3S-Me)]D[dNMeA]G[Bip(4'-COOH)][LysAc]L[dA][h3Pal(5-CN)]) [SEQ ID NO: 208 (Example No. 208)]

Further lines, the binder ahead of its results:

Binder | MRC5 IC50 [nM]
cyclo([TyrEtNAc][Trp(6-F)][Phe(4-COOH)]G[Pro(trans-4-NH2)][1Nal(3S-Me)]D[dNMeA]G[Bip(4'-COOH)][Trp(7-aza)]S[dDab][hCha]) (SMILES CC(=O)NCCOc1ccc(C[C@@H]2NC(=O)[C@H](CCC3CCCCC3)NC(=O)[C@@H](CCN)NC(=O)[C@H](CO)NC(=O)[C@H](Cc3c[nH]c4ncccc34)NC(=O)[C@H](Cc3ccc(-c4ccc(C(=O)O)cc4)cc3)NC(=O)CNC(=O)[C@@H](C)N(C)C(=O)[C@H](CC(=O)O)NC(=O)[C@H]([C@@H](C)c3cccc4ccccc34)NC(=O)[C@@H]3C[C@@H](N)CN3C(=O)CNC(=O)[C@H](Cc3ccc(C(=O)O)cc3)NC(=O)[C@H](Cc3c[nH]c4cc(F)ccc34)NC2=O)cc1) [SEQ ID NO: 212 (Example No. 212)] | 0.025
cyclo([TyrEtNAc][Trp(6-F)][Phe(4-COOH)]G[Pro(trans-4-NH2)][1Nal(3S-Me)]D[dNMeA]G[Bip(4'-COOH)][Ala(indolin-1-yl)]G[dDab][hTyr]) (SMILES CC(=O)NCCOc1ccc(C[C@@H]2NC(=O)[C@H](CCc3ccc(O)cc3)NC(=O)[C@@H](CCN)NC(=O)CNC(=O)[C@H](CN3CCc4ccccc43)NC(=O)[C@H](Cc3ccc(-c4ccc(C(=O)O)cc4)cc3)NC(=O)CNC(=O)[C@@H](C)N(C)C(=O)[C@H](CC(=O)O)NC(=O)[C@H]([C@@H](C)c3cccc4ccccc34)NC(=O)[C@@H]3C[C@@H](N)CN3C(=O)CNC(=O)[C@H](Cc3ccc(C(=O)O)cc3)NC(=O)[C@H](Cc3c[nH]c4cc(F)ccc34)NC2=O)cc1) [SEQ ID NO: 211 (Example No. 211)] | 0.027
cyclo([TyrEtNAc][Trp(6-Cl)][Phe(4-COOH)]G[Pro(trans-4-NH2)][1Nal(3S-Me)]D[dNMeA]G[Bip(4'-COOH)][Trp(7-aza)]S[dDab][hCha]) (SMILES CC(=O)NCCOc1ccc(C[C@@H]2NC(=O)[C@H](CCC3CCCCC3)NC(=O)[C@@H](CCN)NC(=O)[C@H](CO)NC(=O)[C@H](Cc3c[nH]c4ncccc34)NC(=O)[C@H](Cc3ccc(-c4ccc(C(=O)O)cc4)cc3)NC(=O)CNC(=O)[C@@H](C)N(C)C(=O)[C@H](CC(=O)O)NC(=O)[C@H]([C@@H](C)c3cccc4ccccc34)NC(=O)[C@@H]3C[C@@H](N)CN3C(=O)CNC(=O)[C@H](Cc3ccc(C(=O)O)cc3)NC(=O)[C@H](Cc3c[nH]c4cc(Cl)ccc34)NC2=O)cc1) [SEQ ID NO: 210 (Example No. 210)] | 0.02
cyclo([TyrEtNAc]W[Phe(4-COOH)]G[Pro(trans-4-NH2)][1Nal(3S-Me)]D[dNMeA]G[Bip(4'-COOH)][Trp(7-aza)]G[dDab][hCha]) (SMILES CC(=O)NCCOc1ccc(C[C@@H]2NC(=O)[C@H](CCC3CCCCC3)NC(=O)[C@@H](CCN)NC(=O)CNC(=O)[C@H](Cc3c[nH]c4ncccc34)NC(=O)[C@H](Cc3ccc(-c4ccc(C(=O)O)cc4)cc3)NC(=O)CNC(=O)[C@@H](C)N(C)C(=O)[C@H](CC(=O)O)NC(=O)[C@H]([C@@H](C)c3cccc4ccccc34)NC(=O)[C@@H]3C[C@@H](N)CN3C(=O)CNC(=O)[C@H](Cc3ccc(C(=O)O)cc3)NC(=O)[C@H](Cc3c[nH]c4ccccc34)NC2=O)cc1) [SEQ ID NO: 214 (Example No. 214)] | 0.02
cyclo([Phe(4-(4-Ac-piperazinyl))]W[Phe(4-COOH)]G[Pro(trans-4-NH2)][1Nal(3S-Me)]D[dNMeA]G[Bip(4'-COOH)]KL[dA][hCha]) (SMILES CC(=O)N1CCN(c2ccc(C[C@@H]3NC(=O)[C@H](CCC4CCCCC4)NC(=O)[C@@H](C)NC(=O)[C@H](CC(C)C)NC(=O)[C@H](CCCCN)NC(=O)[C@H](Cc4ccc(-c5ccc(C(=O)O)cc5)cc4)NC(=O)CNC(=O)[C@@H](C)N(C)C(=O)[C@H](CC(=O)O)NC(=O)[C@H]([C@@H](C)c4cccc5ccccc45)NC(=O)[C@@H]4C[C@@H](N)CN4C(=O)CNC(=O)[C@H](Cc4ccc(C(=O)O)cc4)NC(=O)[C@H](Cc4c[nH]c5ccccc45)NC3=O)cc2)CC1) [SEQ ID NO: 207 (Example No. 207)] | 0.011
cyclo([TyrEtNAc][Trp(6-F)][Phe(4-COOH)]G[Pro(trans-4-NH2)][1Nal(3S-Me)]D[dNMeA]G[Bip(4'-COOH)][Trp(7-aza)]S[dDabMe3][hCha]) (SMILES CC(=O)NCCOc1ccc(C[C@@H]2NC(=O)[C@H](CCC3CCCCC3)NC(=O)[C@@H](CC[N+](C)(C)C)NC(=O)[C@H](CO)NC(=O)[C@H](Cc3c[nH]c4ncccc34)NC(=O)[C@H](Cc3ccc(-c4ccc(C(=O)O)cc4)cc3)NC(=O)CNC(=O)[C@@H](C)N(C)C(=O)[C@H](CC(=O)O)NC(=O)[C@H]([C@@H](C)c3cccc4ccccc34)NC(=O)[C@@H]3C[C@@H](N)CN3C(=O)CNC(=O)[C@H](Cc3ccc(C(=O)O)cc3)NC(=O)[C@H](Cc3c[nH]c4cc(F)ccc34)NC2=O)cc1) [SEQ ID NO: 213 (Example No. 213)] | 0.018
